Source: PMC3273814

Tested on: T1, Ms6564 (Mycobacterium smegmatis mc2 155), ORF:45299f77
T1 sequence: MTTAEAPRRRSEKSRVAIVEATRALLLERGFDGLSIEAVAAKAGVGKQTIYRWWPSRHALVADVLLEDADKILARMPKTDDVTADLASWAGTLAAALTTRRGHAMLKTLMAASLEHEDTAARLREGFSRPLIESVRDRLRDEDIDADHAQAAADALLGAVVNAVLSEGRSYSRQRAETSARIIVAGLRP
Experiment: DNase I footprinting

Sequence: TTAAATCCGCTGGCCCCGATCACCAGTTTCGTCGCTGTCATAGGCCCTTGCGCTCGTGTCCTCGGGTCATAAACGAGACGGTACGTCTCGTCTTGTGGCAGAGTACGGGGTGTCACTTTTCGTGTAAAGGCCTGCGATGACCACCGCTGAAGCGCCCCGCCGGCGCAGTGAGAAGTCGCGGGTGGCCAT (double strand) [Ms6564p4 (p4-1 / p4-2)]
- binding: binds
